Measurements from the domain aggregation screens of Martell et al. (2025).

Experiment: soluble fraction after stress (log2 fold change); higher = more stays soluble; pooled small domains, quantitative proteomics
Conditions: stress: pH 4
Outline: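 Aggregation propensity is estimated from the fold change in each domain's soluble amount after acid stress. Pooled small-domain libraries were stressed at pH 4, and higher log2 values mean more stayed soluble.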

| Sequence | soluble fraction (log2) |
| --- | --- |
| HMQNEQIAFSKFLQEVDSGRVVQVEIQGNNIKGILSDGSKFYTYSPNYPELVGKLSEKGVNIVASPVE | 0.0117 |
| HMGGRTITVGISENMTVKDIAQMLEEKGLIEDARLFVVQELLSAYHKEIKPGIYDLSTDMTAAQMLEIMS | -1.32 |
| HMSGPSDRDLFDEALALLSGSGREPDYHEARIRLGTLVEQFPESKWAEGAKALLSMLDRVSALQV | -0.673 |
| HMRKRLLQLVHIGKSQLGMDDETYRSLLSQQFYQNSAKNISYSELVKLVKILQQKGAKIRLPH | 0.262 |
| HMGAVQFAEQKIHIGSRWIGKKISEFSAESDAFVILIKRGSEVVIPRGPTDIVENDVLVIHVPD | -1.8 |
| HMAQSLAQKINNYILTNRSSIANVAKSIGYSRTTVSRYLAGKYDSDPTDLENKLAEFLAHETGE | 0.017 |
| HMGEFVQLKNRTGSVIEAKILNYQNGKVKLQRKDGVIFVVPISIFDRMSSSIIENKAKEMDSF | 0.255 |
| HMSETIVFGQQKAINTLSSEAGLSSAELNNYLKKRYQRPLFQLTVSEGADLIQGFQDGTLTKASITQYVSQ | 0.22 |
| HMVPADVQHLRDIVDTMTEKQQLVYKLHVLEGYTFTEIAKLMGTSIPNVKKHYDKAILFIKNNF | -0.165 |
| HMYEPPTEDEKRVLSLLATRESIVRSDVDRLLGVSQSTANRILKQMIEKYLISQEGTGKNTKYIK | -0.113 |
| HMEDETAKVLRLLAENNGYLPYNDKSDPTDIYAFFGMSKKAFKMTTGNLYKQKKIQFTQTGIQLIE | -0.16 |
| HMDDLFGNAIEMFNNQRYDMTYELLVQLLSETPNNEKAWQLLADTKFMLGDYDDALHIVGKAAK | -1.36 |
| HMAARKDLIAGEDAEGRLDAWLAAALDGEFSRNRVKALIEQGAVAINDVAVTEPKRKIRPGDRLSIVLPEP | 0.248 |
| HMSTEPLALVGKTGIAATVLRPSGRIEVDDKYYDAVSLGAFIEKGEMVNIVKYENLQLYVAKL | -0.0114 |
| HMGHYGQMTRDLIEKAKTYEEGEEKAALVLTIANLMKRHYLTWNRATVENTLIAEQLKEMSEGALTLPEDV | -0.962 |
| HMTRNEFMTALRKRLSHLPAEEQDAALKYYEEYFDEAESEEEAARQLGSPDAIADRILADYGAG | -0.261 |
| HMTLTIEDGYVNAKLKTTVEGLAEDSTIKVDSIEYTNAGKNDILTVFVEDKPYRVEKYKINIAPEDS | -1.12 |
| HMDASFTYSLETHPAGVLVRVDGLEYETPFSILLPQGVHRLEVAGEERFFYLSETTHQFLEID | -0.714 |
| HMKIQEVDYSTFLNMLNEKSIAQVEIQDNQIAFNSNQEGNKQIYVTGRIEEDTELVNRLQAAGVQFSRV | -0.638 |
| HMLTEEVEISLMDMTKPTQPATIKTTATIQKGATTVMPKQIKMPEGYEFYGNYKMDQPFELTMTFVVKKI | -0.0427 |
| HMTKQIILVHVAGKVKKPDVYPLLQGSRVADAIKAAGGAKKGVELNDINLARVLIDGEQVFVGYVPE | -0.277 |
| HMGPRVSAGPGRHRVQPGDTLDDIAARYRVSSRDLMLVNGLRNANHVEAGQTLKLPSNAVIA | ≥ 0.43 |
| HMPGRKKLAIIYKNDYIGAFNLADSYRDSYEVSMYAFPKKVGKLLNRLELQGFNAYVIYDKDNEENNFNTI | 0.00545 |
| HMESWEDSNIANEFKSTIKIAEKRLAEGGDHPELLEKLEALKQAIINENQTEASKLDDQVNDILFDMDD | -0.558 |
| HMKILNYQSLVGKKGITKSMLRPAGIVEIEGRRYDVVTRGEFIEPGKMITVDEVQGNRIIVQIERE | 0.189 |
| HMTSHYTVLGVKETDTIEMIRTHYRKLILQFHPDKNQHLTEEERKKLEVKVLQIREAYEKIKKEK | -0.816 |

| Sequence | soluble fraction (log2) |
| --- | --- |
| HMTLGEHILQYRTARGWSQEDLANALEVSRQSVSKWETDASTPELDKIVRLSEIFQVSIDELVTGKA | 0.0683 |
| HMFEFFKGIYSISLLKKDGIFFVTFKDENKEAVKHIFPEKPTALELGIKVMEMFEYKERYDGII | -0.226 |
| HMISESLLDEIPGLGETRRNSLLREFGSVAMIRKASAEEIASRVRGIGAEFAAAIHDFLQTH | 0.0801 |
| HMSILPGVYRHYKGNHYQVFYLAKHSETLEDMVVYQALYGERGIWVRPASMWNETVDDQGKQVKRFTYI | -1.22 |
| HMSTSRAEIIAFLKSNPSSEYKHELETKLDEMDWAEAVKGNSEESFLAYKQRQPNGTHNGEADEKLKVLLV | -0.171 |
| HMKADIEQVQRAFDTLDPKNQQLVLDAMKAATAELDPNSDQFKTNTEFINDNQKALDRHAKAS | 0.0627 |
| HMTDQYEVQNLVGLTVREAQEKEGVKDIFEVREVGSEFSAEYDAGLIVRQSPDAGEQRKGEGLVIEVWVSA | -0.409 |
| HMAFAVWVKLVAIGPNYAQLEIEQGTQRNVRTLRPGDDAPEGVRLLSLTPTHAEVQANGIARKLALGQGMA | -0.0174 |
| HMNVYEVKFGDTLDEIIKTYLFDIPVKKSILRQAVILANPHAFRRNNPHWMYSDRQLKLPELQDIRRAIF | -0.74 |
| HMLTRSTVNVETGTAAIGLGKLYGVYDMSRKGLKYSFSVDSDAMTKVMEMLLPLGIKSLTVEPPS | -0.658 |
| HMFHDPTMEETLINLKGITNEVLSLLSSSKIKKLEDLAEMSVPELRDIVENISDEEASALIMEARKPWF | -1.81 |
| HMHVYSYPAAVKIKNAVGREMMVTLLGRSGTHVQFARQDGEEFVYPISSLDLAAQTLISKYPNDGIKN | 0.0689 |
| HMLDLNEVEFYAIENQLKENLKIDSKRFYELVPLIKGYQEDDIIQVLRWLIDNNRIIRHKDESLTWHS | -1.02 |
| HMSLTAQVFTDRGKVLLSENKFTEAIDQFTKALAMDKVYIEALNRRIEAYQHLGLTELAAKDEALLGTL | -1.01 |
| HMFVEEGSLKKITFDTYEFNITDNLKSLRVTYQGLLPNLFREGQGVVIEGILLEQNYIQANTVF | -0.328 |
| HMHELKIEKVAEAPNGAMRLLLSDGSEWVLGVKSWNRLNLSLEKILDVNVLRALEKESQYHLLRTKALEL | 0.171 |
| HMTQEAMRSLRKSLQNLSSRQQVIFMLRHYEGLALKEIAEHLGLETGTVKAHLHRAVTQLRKDLVE | -0.112 |
| HMKEVKAPMPGMVLRVEVAPGQEVQEGDPLLVLEAMKMENNLKSPASGTIKSVHVEAGKAVEKGAVLVVF | -0.257 |
| HMKNNLKGSPIIIAGGYGVGSKENFNLLFDLAKVLNAEVGASRAAVDAGFVEHDRQIGQTGVTVRP | -0.0469 |
| HMDFDPDVPSREDILQAFRDSKPPLTVNALISEFGLSRDASIVGLERRMGAMQRDGQLEQTPSGWQLSV | 0.144 |
| HMTDFDWSLFTQQLKRFNLFLSYDDREKLQTFQTLYGLNELDLAEYVAKASAGEKNGLNFNYLRQLINKEK | -1.08 |
| HMKVTGITDDILQRLKQQKGYLMLSDKSSPDEIYAAFGVSKKVFKQAIGTLFKQRQIIIEEQGIRLAN | 0.201 |
| HMNLKDINLNVRHYKIIDFVREHGYASIETLTRQFGVSAQTVRRDIIYLDNQAVLKRHHGGVGTLPG | -0.723 |
| HMDEEDVLNELIRRLALTADDRLLLSLSYEDGLSSRKIATLLETSAATVQRRLAGLHHQLEQALRVMGLA | -0.828 |
| HMADLPQATALADVKGDVQMQGIQFGYDPEKIIIHDLNLHARPGSLVAIVGPTGAGKTTIINLLMRFYD | 0.124 |
| HMNADLDIQNVNGNTPLWEAVMRYRGDGFFIEQLLKNGANPDIKNNYGVSPKSLARTIANYDVRRFFN | -0.333 |

| Sequence | soluble fraction (log2) |
| --- | --- |
| HMANADVVLVDLDKEYTVDAAKFHSVVKHSPFNGFAVKGAPVLTIVRGTVVAENGEVVGQPGHSKMVRP | -0.0368 |
| HMSVIETLLSDREREVLTHLVNGYDAKRIAEITGISTLTVRKHIANIYTKLHVNSKAQVISMAHKNKWF | -0.773 |
| HMGASYSQFLDQVDSGNVQKVAFGGDMRGGTSQLTYTTRGGQSSTITAPFDRDLINVLRTKNVEIVQEEP | 0.0587 |
| HMDTMINLIGLNLKKAKKELSNLGVNVKKVRYKKSSVYDEGVVIDQSIEAGRNIKNGDFITITVSSGKA | -0.0745 |
| HMKPGTIVTGVVVDIKSDVVVVNAGLKSEGIVPIEQFRNDRGELEVAIGDEVKVALDSLENGFGETVLSRE | -1.21 |
| HMSENIQLQKEQLYQLIAQLPEQRQKIFRLHKIDNYSYQEISDFTGLSRKTIANHIYLAHQFILKKVKK | -0.28 |
| HMRPEVTEHLKTADAILHGGDINRQSIVDELRQYAPLYIVRGNNDKDWAEAIPHDLTVTLGGVTFFMVHNR | -0.42 |
| HMARKISVEALGKYFPNSPMLAAAVAVTGVMKKDEFIHEMRASYKHKFAKKPEVIDGNMKALTMTFEA | -0.122 |
| HMKPGNFILDLLRTYGQKGTSAQNLMSSSRMFNFSENLIRVTLSRLAARGLIENFERGHYRLAE | 0.0573 |
| HMTISGSDLKAQREALNIPLERIAKETRIRLSILQDLEDEEYSELSSSAQTKGFLRLYADYLSSHKQRLG | 0.0379 |
| HMIGKDLLGYEVFSESGDLVGILKDVMWLPHSDVYVITNGGKELLIPVIPEVVKGINHEQGVIVISPM | -1.04 |
| HMEMGNKIKELRTKLGITQEELSKTLNVSSQAVSKWENGGLPDLELIPEIAKYFNVTTDYLFDIK | -0.723 |
| HMADYSGYLGKKGKVIAPLRPAGTALIDGERVDVVSFGDYIDKDSEIEVVKIEGSKLLVKKY | 0.128 |
| HMLAQYPGQVFSKEQIYNQVWKEPYYGVEDNVMSLIRRIRKKIEPDPSRPIYILTVWGIGYKFNN | 0.0406 |
| HMSHQIIIVAVELDPSTERIVYYLSKNGISINVLFFKVFQHGDEQFLSRVWLIDPSETQTNAALA | -0.424 |
| HMDYTPIEVKDLPQAIQDALTKNFSEYTVKSAAYQEDEDGVKIYQVTVVDEEGTEANIFFTEKGE | 0.00729 |
| HMGIAEGSSVFVRVLAAEDGGRYTVSFAGRRFSVLSRQALGIGSAFRADVKVEKGQVLLVPR | -0.348 |
| HMVLANLQAAEQGDLGIKEGEKLTILQTRPDGWWTARNANGETGLVPK | 0.0851 |
| HMDTNTIIGLRIKALRTEKKYTLKYLSENSGLSIGFLSQLERGMTSVAIDSLDKISKVLDVELSSFFN | -0.65 |
| HMLSTQEYIKKNIENGSWKVGEKIPSENNLTEILGVSRASIRVAIQQFIALDVLNSIHGKGTFVKTNNIMG | 0.207 |
| HMKDYKSALQELIQSGDKRVISYHTLKETGPSHNREFEAAVKLDGNIILGVGKGKTKKEAEQNAAHEALKK | 0.165 |
| HMEPDTVVVPNFVGKVYASEIEGNEAYSDFTFVIKEGNDPEQDIGVVLKQTPNEGLEVKKGKEITLTINQ | -0.169 |
| HMDGVPPAGSRIRLTVSTQVGDKEFEGTLVPPAGVDLLTLKLANGYNLSHSIADVREVVLIEEGLQGEEP | -2.05 |
| HMSIESMVGRFGVVTKDVVANEMAGKVKVGREEFRATADIAVSSGTKVKVTHAEGITLTVVPE | 0.0258 |
